Source: article PMC13581288, “The chromokinesin Kid (KIF22) forms a homodimer, moves processively along microtubules, and transports double-stranded DNA” (eLife, 2024)

Experiments:
[1] = target: KIF1AMD-XKidSt (chimera of the KIF1A motor domain with the neck linker and coiled-coil domain of XKid) (not stated | Xenopus); test: SEC; Superdex 200 Increase 10/300 GL on an NGC system; micromolar protein concentrations; UNC-104(1-653)-sfGFP (or mScarlet for XKidCC-mScarlet) run as size marker
[2] = target: the molecule itself; test: as above

Q: “KIF1AMD-XKidSt (chimera of the KIF1A motor domain with the neck linker and coiled-coil domain of XKid)” was tested. Which stoichiometry N [1] did it give?
A: 2

B1: KIF1A(1-393)LZ (other)
chain: MAGASVKVAVRVRPFNSREMSRDSKCIIQMSGSTTTIVNPKQPKETPKSFSFDYSYWSHTSPEDINYASQKQVYRDIGEEMLQHAFEGYNVCIFAYGQTGAGKSYTMMGKQEKDQQGIIPQLCEDLFSRINDTTNDNMSYSVEVSYMEIYCERVRDLLNPKNKGNLRVREHPLLGPYVEDLSKLAVTSYNDIQDLMDSGNKARTVAATNMNETSSRSHAVFNIIFTQKRHDAETNITTEKVSKISLVDLAGSERADSTGAKGTRLKEGANINKSLTTLGKVISALAEMDSGPNKNKKKKKTDFIPYRDSVLTWLLRENLGGNSRTAMVAALSPADINYDETLSTLRYADRAKQIRCNAVINEDPNNKLIRELKDEVTRLRDLLYAQGLGDITDLEDKVEELLSKNYHLENEVARL
Q: With B1 as the molecule, how does the “stoichiometry N” value [2] read?
A: 2

B2: full-length human Kid tagged with mNeonGreen (hKidFL-mNeonGreen) (natural protein, UniProt Q14807 1-665, looked up)
chain: MAAGGSTQQRRREMAAASAAAISGAGRCRLSKIGATRRPPPARVRVAVRLRPFVDGTAGASDPPCVRGMDSCSLEIANWRNHQETLKYQFDAFYGERSTQQDIYAGSVQPILRHLLEGQNASVLAYGPTGAGKTHTMLGSPEQPGVIPRALMDLLQLTREEGAEGRPWALSVTMSYLEIYQEKVLDLLDPASGDLVIREDCRGNILIPGLSQKPISSFADFERHFLPASRNRTVGATRLNQRSSRSHAVLLVKVDQRERLAPFRQREGKLYLIDLAGSEDNRRTGNKGLRLKESGAINTSLFVLGKVVDALNQGLPRVPYRDSKLTRLLQDSLGGSAHSILIANIAPERRFYLDTVSALNFAARSKEVINRPFTNESLQPHALGPVKLSQKELLGPPEAKRARGPEEEEIGSPEPMAAPASASQKLSPLQKLSSMDPAMLERLLSLDRLLASQGSQGAPLLSTPKRERMVLMKTVEEKDLEIERLKTKQKELEAKMLAQKAEEKENHCPTMLRPLSHRTVTGAKPLKKAVVMPLQLIQEQAASPNAEIHILKNKGRKRKLESLDALEPEEKAEDCWELQISPELLAHGRQKILDLLNEGSARDLRSLQRIGPKKAQLIVGWRELHGPFSQVEDLERVEGITGKQMESFLKANILGLAAGQRCGAS
notes: Kid (KIF22), human, full length; cDNA corresponding to GenBank DQ895829.2; also called hKid-mNeonGreen; hKidFL-mNG; not shown: mNeonGreen, C-terminal, kept
Q: B2 was tested. Which “stoichiometry N” value [2] did it give?
A: 2

B3: full-length Xenopus Kid tagged with mScarlet (XKidFL-mScarlet) (natural protein, UniProt Q9I869 1-651, looked up)
chain: MVLTGPLQRESVSMAKRVSMLDQHKKSSCARVRVAVRLRPYMDEKDEAKATTVCVRGLDSQSLEIVNWRNQLETMQYQFDAFYGDSASQREIYMGSVCHILPHLLIGQNASVFAYGPTGAGKTHTMLGNPNQPGVIPRAVRDLLQMSRTAASAPENENWTYTINMSYVEIYQEKVMDLLEPKNKDLPIREDKDHNILIPGVTQKMINSFADFDEHFIPASQNRTVASTKLNDRSSRSHAVLLIKVQKSQQVVPFRQLTGKLYLIDLAGSEDNRRTGNQGIRLKESGAINSSLFTLSKVVDALNQGLPRIPYRDSKLTRLLQDSLGGSAHSVMITNIAPEQTYYFDTLTALNFAAKSKQIINKPFSQETTQTVVQPAMKRPREETGHIAGSQKRKKSKNDSTESSPNSSMDTAGKQKLNLATLDPAVVERLLKLDKILTEKGKKKAQLLSTPKRERMALLKKWEESQMEIERLKEKQKELEQKAMEAEARLEKSNNSDLSDSSVSENTFRAPLRGRNTSTAKVKKVLRVLPMQGNSQLQSTVEEGIPVFEKKKKKKQVTCEGLENQPTWEMNMRTDLLESGKERILKLLNTGSVKELKSLQRIGDKKAKLIIGWREVNGPFKNVEELACLEGISAKQVSSFIKANIMSSIAS
notes: Kid (Kif22.S), Xenopus, full length; cDNA corresponding to GenBank BC070549.1; also called XKid-mScarlet; Full-length XKid; not shown: mScarlet, C-terminal, kept
Q: With B3 as the molecule, how does the “stoichiometry N” value [2] read?
A: 2

B4: XKid(1-496)-mScarlet (domain or fragment, Xenopus, UniProt Q9I869 1-496, looked up)
chain: MVLTGPLQRESVSMAKRVSMLDQHKKSSCARVRVAVRLRPYMDEKDEAKATTVCVRGLDSQSLEIVNWRNQLETMQYQFDAFYGDSASQREIYMGSVCHILPHLLIGQNASVFAYGPTGAGKTHTMLGNPNQPGVIPRAVRDLLQMSRTAASAPENENWTYTINMSYVEIYQEKVMDLLEPKNKDLPIREDKDHNILIPGVTQKMINSFADFDEHFIPASQNRTVASTKLNDRSSRSHAVLLIKVQKSQQVVPFRQLTGKLYLIDLAGSEDNRRTGNQGIRLKESGAINSSLFTLSKVVDALNQGLPRIPYRDSKLTRLLQDSLGGSAHSVMITNIAPEQTYYFDTLTALNFAAKSKQIINKPFSQETTQTVVQPAMKRPREETGHIAGSQKRKKSKNDSTESSPNSSMDTAGKQKLNLATLDPAVVERLLKLDKILTEKGKKKAQLLSTPKRERMALLKKWEESQMEIERLKEKQKELEQKAMEAEARLEKSNNS
notes: deletion mutant made by PCR-based mutagenesis; also called XKid(1-497); not shown: mScarlet, C-terminal, kept
Q: With B4 as the molecule, how does the “stoichiometry N” value [2] read?
A: 2
